Test results reported in US20240100162A1.

B1: TCR1 (TCR)
TCR alpha: KQEVTQIPAALSVPEGENLVLNCSFTDSAIYNLQWFRQDPGKGLTSLLLIQSSQREQTSGRLNASLDKSSGRSTLYIAASQPGDSATYLCAAMKTSYDKVIFGPGTSLSVIPNIQNPDPAVYQLRDSKSSDKSVCLFTDFDSQTNVSQSKDSDVYITDKTVLDMRSMDFKSNSAVAWSNKSDFACANAFNNSIIPEDTFFPSPESSCDVKLVEKSFETDTNLNFQNLSVIGFRILLLKVAGFNLLMTLRLWSS
TCR beta: GEEVAQTPKHLVRGEGQKAKLYCAPIKGHSYVFWYQQVLKNEFKFLISFQNENVFDETGMPKERFSAKCLPNSPCSLEIQATKLEDSAVYFCASSQGQGGYGYTFGSGTRLTVVEDLNKVFPPEVAVFEPSEAEISHTQKATLVCLATGFFPDHVELSWWVNGKEVHSGVSTDPQPLKEQPALNDSRYCLSSRLRVSATFWQNPRNHFRCQVQFYGLSENDEWTQDRAKPVTQIVSAEAWGRADCGFTSVSYQQGVLSATILYEILLGKATLYAVLVSALVLMAMVKRKDF
B2: TCR3 (TCR)
TCR alpha: AQKVTQAQTEISVVEKEDVTLDCVYETRDTTYYLFWYKQPPSGELVFLIRRNSFDEQNEISGRYSWNFQKSTSSFNFTITASQVVDSAVYFCALSVLRMDSSYKLIFGSGTRLLVRPDIQNPDPAVYQLRDSKSSDKSVCLFTDFDSQTNVSQSKDSDVYITDKTVLDMRSMDFKSNSAVAWSNKSDFACANAFNNSIIPEDTFFPSPESSCDVKLVEKSFETDTNLNFQNLSVIGFRILLLKVAGFNLLMTLRLWSS
TCR beta: NAGVTQTPKFRVLKTGQSMTLLCAQDMNHEYMYWYRQDPGMGLRLIHYSVGEGTTAKGEVPDGYNVSRLKKQNFLLGLESAAPSQTSVYFCASSLQGAGQPQHFGDGTRLSILEDLNKVFPPEVAVFEPSEAEISHTQKATLVCLATGFFPDHVELSWWVNGKEVHSGVSTDPQPLKEQPALNDSRYCLSSRLRVSATFWQNPRNHFRCQVQFYGLSENDEWTQDRAKPVTQIVSAEAWGRADCGFTSVSYQQGVLSATILYEILLGKATLYAVLVSALVLMAMVKRKDF
B3: TCR2 (TCR)
TCR alpha: QKEVEQNSGPLSVPEGAIASLNCTYSDRGSQSFFWYRQYSGKSPELIMSIYSNGDKEDGRFTAQLNKASQYVSLLIRDSQPSDSATYLCAVNIPFSNSGGYQKVTFGTGTKLQVIPNIQNPDPAVYQLRDSKSSDKSVCLFTDFDSQTNVSQSKDSDVYITDKTVLDMRSMDFKSNSAVAWSNKSDFACANAFNNSIIPEDTFFPSPESSCDVKLVEKSFETDTNLNFQNLSVIGFRILLLKVAGFNLLMTLRLWSS
TCR beta: NAGVTQTPKFRVLKTGQSMTLLCAQDMNHEYMYWYRQDPGMGLRLIHYSVGEGTTAKGEVPDGYNVSRLKKQNFLLGLESAAPSQTSVYFCASRHPGQYNQPQHFGDGTRLSILEDLNKVFPPEVAVFEPSEAEISHTQKATLVCLATGFFPDHVELSWWVNGKEVHSGVSTDPQPLKEQPALNDSRYCLSSRLRVSATFWQNPRNHFRCQVQFYGLSENDEWTQDRAKPVTQIVSAEAWGRADCGFTSVSYQQGVLSATILYEILLGKATLYAVLVSALVLMAMVKRKDF

These binders were tested against highly frequent MHC Class I alleles in major US ethnic groups, including 38 HLA-A, 40 HLA-B, and 24 HLA-C alleles, on a panel of 34 BLCLs (assay: cell-based or functional assay).

Cytokine (IFNg, TNFa, IL-12p70) and granzyme B production in co-culture with BLCLs, fold over IL12-RFP control T cells, < 4 fold:
B1, B2, B3
